From article PMC5137450

Legend:
Assay in all cases: filter binding
MBNL1 [1] = molecular target: T1, MBNL1 (UniProt Q9NR56 1-260)
T1 sequence: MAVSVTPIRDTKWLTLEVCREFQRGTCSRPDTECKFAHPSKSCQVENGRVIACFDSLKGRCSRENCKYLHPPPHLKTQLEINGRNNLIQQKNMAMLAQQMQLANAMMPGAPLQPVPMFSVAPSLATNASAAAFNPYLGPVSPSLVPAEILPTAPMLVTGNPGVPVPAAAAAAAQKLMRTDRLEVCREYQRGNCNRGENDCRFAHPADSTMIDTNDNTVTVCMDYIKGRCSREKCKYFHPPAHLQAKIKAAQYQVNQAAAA

MBNL3 [2] = molecular target: T2, MBNL3 (human, UniProt Q9NUK0 1-257)
T2 sequence: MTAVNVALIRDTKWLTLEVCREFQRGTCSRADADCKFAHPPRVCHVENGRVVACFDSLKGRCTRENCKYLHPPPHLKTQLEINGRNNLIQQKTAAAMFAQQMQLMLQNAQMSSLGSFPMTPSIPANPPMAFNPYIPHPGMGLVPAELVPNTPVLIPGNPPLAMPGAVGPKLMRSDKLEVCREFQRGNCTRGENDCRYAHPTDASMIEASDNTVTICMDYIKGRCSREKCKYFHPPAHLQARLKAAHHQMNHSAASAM

MBNL2 [3] = molecular target: T3, MBNL2 (human, UniProt Q5VZF2 1-268)
T3 sequence: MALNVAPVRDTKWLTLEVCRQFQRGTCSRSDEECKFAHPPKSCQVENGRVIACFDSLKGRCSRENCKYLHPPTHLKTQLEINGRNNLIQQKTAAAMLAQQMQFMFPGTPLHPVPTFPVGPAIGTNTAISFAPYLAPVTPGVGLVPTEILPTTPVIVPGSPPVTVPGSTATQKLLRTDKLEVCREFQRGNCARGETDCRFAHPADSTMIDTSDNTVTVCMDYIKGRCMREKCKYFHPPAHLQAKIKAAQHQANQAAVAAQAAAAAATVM

MBNL1 [4] = molecular target: T1, MBNL1; remark: listed apart in the source
MBNL3 [5] = molecular target: T2, MBNL3; remark: listed apart in the source
MBNL2 [6] = molecular target: T3, MBNL2; remark: listed apart in the source

| Binder | Kd (MBNL1 [1]) [nM] | Kd (MBNL3 [2]) [nM] | Kd (MBNL2 [3]) [nM] | binding result (MBNL1 [4]) | binding result (MBNL3 [5]) | binding result (MBNL2 [6]) |
| --- | --- | --- | --- | --- | --- | --- |
| (CUG)20 (structured_RNA) RNA: CUGCUGCUGCUGCUGCUGCUGCUGCUGCUGCUGCUGCUGCUGCUGCUGCUGCUGCUGCUG | ~7.75 | ~7.75 | ~7.75 | – | – | – |
| Atp2a1 intron 22 RNA (145 nt) (structured_RNA) RNA: GGGCACCCCUGCGGUCACUUGCGCGCGCUCGCAGCUCUCCCUGGAGCCACUGCUGCUGUUGCCACUGCCCGCUUCCACAUGAGGGCCAUGCCGUUACUGUGGGCACUGGCAGCUGUGAGGCUGUGUCCUGGCCGUCCAGUCUGCU | – | – | – | binds | binds | binds |
